“Also recorded” adds a separate entry of the source.
Key:
[1] = system: Bacteroides xylanisolvens; experiment: Flow cytometry binding to microbiome strain; settings: fixed cells; 15 μg/mL Strep-tagged-hIntL-1, 10 mM CaCl2 vs EDTA control
Description: (§1) The inventors have begun to examine the binding of hIntL-1 to bacteria known to reside in the human intestine. Strains of relevant bacteria were grown anaerobically. The samples are fixed using 1% formaldehyde for 30 min on ice. […] Fixed cells are exposed to Strep-tagged (IBS Lifesciences) -hIntL-1. The Strep-tag not necessary for function but added because it facilitates purification and detection. Cells were analyzed by flow cytometry on a BD FACSCalibur or LSRII. Bacterial cells were identified using either propidium iodide (PI) or DAPI. An anti-Strep-tag antibody conjugated to the fluorophore Oyster 645 nm was used to detect the population of bacteria bound by hIntL-1.
(§2) To determine whether observed binding is dependent on hIntL-1 interaction with microbial glycans, the inventors take advantage of critical role of calcium ions in hIntL-1 binding. The addition of the calcium ion chelator EDTA, which sequesters bound calcium ions, serves as an important specificity control. Fixed bacteria are incubated in 20 mM HEPES (pH 7.2), 150 mM NaCl, 10 mM CaCl2, 15 μg/mL Strep-tagged-hIntL-1, 0.1% bovine serum albumin (BSA), 0.05% Tween-20, 2 μg/mL StrepMAB-Classic conjugated to Oyster 645 (IBA Lifesciences, cat. no.: 2-1555-050). For the cells incubated in the absence of calcium ions, the following solution is used 20 mM HEPES (pH 7.2), 150 mM NaCl, 5 mM EDTA, 15 μg/mL Strep-tagged-hIntL-1, 0.1% bovine serum albumin (BSA), 0.05% tween-20, 2 μg/mL StrepMAB-Classic conjugated to Oyster 645 (IBA Lifesciences, cat. no.: 2-1555-050). Cell samples were analyzed by flow cytometry consecutively using an identical instrument setting. The percentages of unstained cells, cells stained in the presence of calcium ions, and cells stained in the presence of EDTA were directly compared. Increased hIntL-1 binding signal in the presence of calcium ions when compared to unstained cells or the EDTA sample indicates specific binding to the surface glycans of that strain of bacteria. FIG. 17 is representative of the data obtained. A list of bacteria bound by hIntL-1 can be found in Table 1. […]

Lactobacillus reuteri = experiment: Flow cytometry binding to microbiome strain; settings: fixed cells; 15 μg/mL Strep-tagged-hIntL-1, 10 mM CaCl2 vs EDTA control
Description: as §1, §2

Bifidobacterium dentium = experiment: Flow cytometry binding to microbiome strain; settings: fixed cells; 15 μg/mL Strep-tagged-hIntL-1, 10 mM CaCl2 vs EDTA control
Description: as §1, §2

[2] = Microbial Glycan Microarray (MGMv2); format: binding, Salmonella enterica; settings: Strep-hIntL-1 50 μg/mL; terminal α-Galf residue
Description: Strep-hIntL-1 was used to interrogate the Microbial Glycan Microarray version 2 (MGMv2). Construction of the MGMv2 is previously described. Briefly, bacterial polysaccharide samples were dissolved and diluted to 0.5 mg/mL in printing buffer (150 mM sodium phosphate buffer (8.4)+0.005% Tween-20). Samples were immobilized on NETS-activated glass slides (SlideH, Schott/Nexterion) using a MicroGrid II (Digilab) contact microarray printer equipped with SMP-4B printing pins (Telechem). Six replicates of each bacterial glycan sample were printed. Covalent coupling of glycans to the surface was facilitated by incubation for 1 hour postprint at 100% relative humidity. The remaining reactive NHS-moieties were quenched using a blocking solution (50 mM ethanolamine in 50 mM borate buffer (9.2)). Blocked slides were stored at −20° C. until assays were performed. […] The Strep-Tag® II on bound hIntL-1 was detected using StrepMAB-Classic Chromeo647 (10 μg/mL, IBA GmbH Lifesciences) diluted in binding buffer applied directly to the array surface and allowed to incubate for 1 hour. […] Signal data was calculated as the average of 4 values after removing the high and low values of the 6 replicates. Data were plotted using Excel (Microsoft) as average Relative Fluorescence Units (RFU) versus print identification number. […]

[3] = CFG mammalian glycan array v5.1; format: binding; settings: hIntL-1 at 50 and 200 μg/ml
[4] = hIntL-1 carbohydrate binding ELISA-like assay
Description: To fabricate carbohydrate-displaying surfaces, 0.5 μg of streptavidin (Prozyme, cat. no. SA20) was adsorbed onto a Maxisorp (Nunc) flat bottom 96 well plate in PBS. Wells were washed with PBS and then coated with 5 μM of carbohydrate-biotin ligand in PBS for 1 hour at 22° C. Wells were blocked with bovine serum albumin (BSA) in ELISA buffer (20 mM HEPES (7.4) 150 mM NaCl, 10 mM CaCl2, and 0.1% tween-20). Samples containing hIntL-1 were prepared by serial dilution into ELISA buffer+0.1% BSA and added to wells for 2 hours at 22° C. Wells were washed four times with ELISA buffer. Bound hIntL-1 was detected using 0.75 μg/mL of a sheep IgG hIntL-1 antibody (R&D Systems, cat. no. AF4254) in ELISA buffer+0.1% BSA for 2 hours at 22° C. Wells were washed with ELISA buffer. A donkey anti-sheep IgG horseradish peroxidase (HRP) conjugate (Jackson ImmunoResearch Laboratories) was added at a 1:5,000 dilution in ELISA buffer+0.1% BSA for 1 hour at 22° C. Wells were washed and hIntL-1 was detected colorimetrically with addition of 1-Step Ultra TMB-ELISA (Pierce). Once sufficient signal was achieved (typically <2 min.), the reaction was quenched with addition of equal volume 2 M H2SO4. Plates were read at 450 nm on an ELx800 plate reader (Bio-Tek). When testing the Ca^2+ dependency of hIntL-1, 1 mM EDTA replaced 10 mM CaCl2 in all steps. Data were analyzed on Prism6 (GraphPad). […]

B1: hIntL-1: human lectin intelectin-1, accession no. Q8WWA0; recombinant disulfide-linked trimer from HEK 293T cells, used also N-terminally Strep-tagged (Strep-hIntL-1) (protein, listed as Homo sapiens)
chain: MNQLSFLLFLIATTRGWSTDEANTYFKEWTCSSSPSLPRSCKEIKDECPSAFDGLYFLRTENGVIYQTFCDMTSGGGGWTLVASVHENDMRGKCTVGDRWSSQQGSKAVYPEGDGNWANYNTFGSAEAATSDDYKNPGYYDIQAKDLGIWHVPNKSPMQHWRNSSLLRYRTDTGFLQTLGHNLFGIYQKYPVKYGEGKCWTDNGPVIPVVYDFGDAQKTASYYSPYGQREFTAGFVQFRVFNNERAANALCAGMRVTGCNTEHHCIGGGGYFPEASPQQCGDFSGFDWSGYGTHVGYSSSREITEAAVLLFYR
- binding of hIntL-1 to Bacteroides xylanisolvens by flow cytometry [1]: not
- binding of hIntL-1 to Lactobacillus reuteri by flow cytometry (Lactobacillus reuteri): binds
- binding of hIntL-1 to Bifidobacterium dentium by flow cytometry (Bifidobacterium dentium): binds
- signal on microbial glycan array [2]: 66 RFU
- binding to human glycan ligands on CFG mammalian glycan array [3]: none are bound by hIntL-1 with appreciable affinity
- binding to immobilized α-Neu5Ac [4]: lack of affinity; also recorded: does not bind

Source: US10413588B2, “Probiotic function of human intelectin” (Wisconsin Alumni Research Foundation, priority 2015, dated 2019)
